Patent US20220339289A1 (Bicycle, published 2022)
Starred links: 1 amine or outer side, 2 acyl side, 3 side chain; linkers in the order of their positions; H or OH if unused. Positions of bridges follow the written chain, without caps; N, C: chain ends. Non-standard residues stand in square brackets, D forms with d. Primed or numbered codes have the meaning given here. No end group written: not given here. *: point of attachment. TCAZ″ = 1,1',1''-(1,4,7-triazonane-1,4,7-triyl)tris(2-chloroethan-1-one) scaffold, O=C(C[*:1])N1CCN(C(=O)C[*:2])CCN(C(=O)C[*:3])CC1; TCAZ = 1,1',1''-(1,4,7-triazonane-1,4,7-triyl)tris(2-chloroethan-1-one); TATA = O=C(CC[*:1])N1CN(C(=O)CC[*:2])CN(C(=O)CC[*:3])C1; 1Nal = N[C@@H](Cc1cccc2ccccc12)C(=O)O; Pent4ynoyl = C#CCCC(=O)*

Experiments:
[1] = biological target: T1, Recombinant biotinylated human P-Selectin protein (human, UniProt P16109 42-771, limits assumed, biotinylated (site not stated)); experiment: SPR (Biacore), biotinylated human P-selectin captured on streptavidin chip, peptide as analyte
T1 sequence (looked up): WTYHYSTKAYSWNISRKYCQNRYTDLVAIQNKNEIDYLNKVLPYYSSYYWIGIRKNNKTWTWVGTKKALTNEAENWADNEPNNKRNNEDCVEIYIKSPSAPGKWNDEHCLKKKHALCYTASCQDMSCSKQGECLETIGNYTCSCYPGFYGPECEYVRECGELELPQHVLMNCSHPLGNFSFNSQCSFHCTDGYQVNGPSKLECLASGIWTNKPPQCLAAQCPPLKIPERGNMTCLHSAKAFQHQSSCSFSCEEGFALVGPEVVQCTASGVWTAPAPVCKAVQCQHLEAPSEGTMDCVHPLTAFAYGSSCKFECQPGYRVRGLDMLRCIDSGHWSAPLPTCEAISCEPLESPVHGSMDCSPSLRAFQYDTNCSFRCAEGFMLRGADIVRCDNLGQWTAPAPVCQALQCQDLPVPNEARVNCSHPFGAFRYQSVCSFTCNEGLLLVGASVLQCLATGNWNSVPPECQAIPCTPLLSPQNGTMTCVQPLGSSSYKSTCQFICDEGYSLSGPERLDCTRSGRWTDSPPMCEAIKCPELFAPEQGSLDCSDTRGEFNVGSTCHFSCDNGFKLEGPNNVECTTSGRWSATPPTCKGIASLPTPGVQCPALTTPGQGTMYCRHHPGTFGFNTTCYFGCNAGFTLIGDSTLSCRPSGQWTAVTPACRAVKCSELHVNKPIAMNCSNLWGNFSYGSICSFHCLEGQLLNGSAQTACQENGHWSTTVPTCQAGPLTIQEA
Protocol: (§1) Biacore experiments were performed to determine ka (M−1s−1), kd (s−1), KD (nM) values of monomeric peptides binding to human Selectin proteins. Recombinant biotinylated human P-Selectin protein was used. For analysis of binding, either a Biacore 3000 or 5200 instrument was used with a CMS sensor chip (GE Healthcare). For sensor chip surface preparation, streptavidin was immobilized on the chip using standard amine-coupling chemistry at 25° C. with HBS-N (10 mM HEPES, 0.15 M NaCl, pH 7.4) as the running buffer. The carboxymethyl dextran surface was activated with a 12 min injection of a 1:1 ratio of 0.4 M 1-ethyl-3-(3-dim ethyl aminopropyl) carbodiimide hydrochloride (EDC)/0.1 M N-hydroxy succinimide (NHS) at a flow rate of 10 μl/min. For capture of streptavidin, protein was diluted to 0.2 mg/ml in 10 mM sodium acetate (pH 4.5) and captured by injecting 70 μl onto the activated chip surface. Residual activated groups were blocked with a 7 min injection of 1 M ethanolamine (pH 8.5). Biotinylated protein stock was diluted 1:100 in HBS-N and captured on one flow cell at 5 μl/min to a level of 1000-1500 RU. Buffer was changed to PBS/0.05% Tween 20 and a dilution series of the peptides was prepared in this buffer with a final DMSO concentration of 0.5%. […] In all cases a titration was performed with either seven 2-fold dilutions or five 3-fold dilutions. The SPR analysis was run at 25° C. with a flow rate of 50-80 μl/min with 60 seconds association and a suitable disassociation period (100-900 seconds). Data were corrected for DMSO excluded volume effects. All data were double-referenced for blank injections and reference surface using standard processing procedures and data processing and kinetic fitting were performed using Scrubber software, version 2.0c (BioLogic Software). Data were fitted using mass transport model allowing for mass transport effects where appropriate.

[2] = biological target: T1, Recombinant biotinylated human …; experiment: inhibition of 5 nM P-selectin binding to HL-60 cells (PSGL1), mirrorball cytometer, geomean of n=3
Protocol: Bicycle test samples, SelG1 (Crizanlizumab) were serially diluted maintaining 0.5% DMSO in assay buffer (25 mM HEPES, 121 mM NaCl, 5.4 mM KCl, 0.8 mM MgCl₂, 1.8 mM CaCl₂), 6 mM NaHCO₂, 5.5 mM glucose, 1% BSA, pH7.4) and transferred to 384 well clear bottom plates (Corning, 3712) with a final volume of 6 μL. […], of P-Selectin in imaging buffer (25 mM HEPES, 121 mM NaCl, 5.4 mM KCl, 0.8 mM MgCl₂, 1.8 mM CaCl₂), 6 mM NaHCO₂, 5.5 mM glucose, pH7.4) was added to give a 5 nM final concentration and incubated at room temperature for 15 minutes. HL-60 cells (ATCC, CCL-240) mixed with 1 μg/mL far red labelled wheat germ agglutinin (WGA, ThermoFisher W21404) and 1 μg/mL AlexaFluor 488-streptavidin (Invitrogen S11223) were added to the plate and incubated for 2 hours at room temperature in the absence of light. Staining and antibody binding were quantified by simultaneously scanning the microplates with 488 nm and 640 nm lasers on a mirrorball microplate cytometer, AF488 on FL2 triggering on AF647-WGA on FL4. Data was analysed in Dotmatics, using a four parameter logistic fit to generate IC50 values and % response. Percent inhibition was calculated using 100−% response at top concentration.

[3] = biological target: T1, Recombinant biotinylated human …; experiment: SPR (Biacore), biotinylated human P-selectin captured on streptavidin chip, peptide as analyte; peptide BCY5459, a separate peptide number
Protocol: as §1, with “The SPR analysis was run at 25° C. with a flow rate of 50-80 μl/min with 60 seconds association and a suitable disassociation period (100-900 seconds). Data were corrected for DMSO excluded volume effects. All data were double-referenced for blank injections and reference surface using standard processing procedures and data processing and kinetic fitting were performed using Scrubber software, version 2.0c (BioLogic Software). Data were fitted using mass transport model allowing for mass transport effects where appropriate.” left out

[4] = biological target: T1, Recombinant biotinylated human …; experiment: SPR (Biacore), biotinylated human P-selectin captured on streptavidin chip, peptide as analyte; peptide BCY12261, a separate peptide number
Protocol: as §1, with “The SPR analysis was run at 25° C. with a flow rate of 50-80 μl/min with 60 seconds association and a suitable disassociation period (100-900 seconds). Data were corrected for DMSO excluded volume effects. All data were double-referenced for blank injections and reference surface using standard processing procedures and data processing and kinetic fitting were performed using Scrubber software, version 2.0c (BioLogic Software). Data were fitted using mass transport model allowing for mass transport effects where appropriate.” left out

[5] = biological target: T1, Recombinant biotinylated human …; experiment: SPR (Biacore), biotinylated human P-selectin captured on streptavidin chip, peptide as analyte; peptide BCY12257, a separate peptide number
Protocol: as §1, with “The SPR analysis was run at 25° C. with a flow rate of 50-80 μl/min with 60 seconds association and a suitable disassociation period (100-900 seconds). Data were corrected for DMSO excluded volume effects. All data were double-referenced for blank injections and reference surface using standard processing procedures and data processing and kinetic fitting were performed using Scrubber software, version 2.0c (BioLogic Software). Data were fitted using mass transport model allowing for mass transport effects where appropriate.” left out

[6] = biological target: T1, Recombinant biotinylated human …; experiment: SPR (Biacore), biotinylated human P-selectin captured on streptavidin chip, peptide as analyte; peptide BCY5463, a separate peptide number
Protocol: as §1, with “The SPR analysis was run at 25° C. with a flow rate of 50-80 μl/min with 60 seconds association and a suitable disassociation period (100-900 seconds). Data were corrected for DMSO excluded volume effects. All data were double-referenced for blank injections and reference surface using standard processing procedures and data processing and kinetic fitting were performed using Scrubber software, version 2.0c (BioLogic Software). Data were fitted using mass transport model allowing for mass transport effects where appropriate.” left out

[7] = biological target: T1, Recombinant biotinylated human …; experiment: SPR (Biacore), biotinylated human P-selectin captured on streptavidin chip, peptide as analyte; peptide BCY5454, a separate peptide number
Protocol: as §1, with “The SPR analysis was run at 25° C. with a flow rate of 50-80 μl/min with 60 seconds association and a suitable disassociation period (100-900 seconds). Data were corrected for DMSO excluded volume effects. All data were double-referenced for blank injections and reference surface using standard processing procedures and data processing and kinetic fitting were performed using Scrubber software, version 2.0c (BioLogic Software). Data were fitted using mass transport model allowing for mass transport effects where appropriate.” left out

[8] = biological target: T1, Recombinant biotinylated human …; experiment: SPR (Biacore), biotinylated human P-selectin captured on streptavidin chip, peptide as analyte; peptide BCY5462, a separate peptide number
Protocol: as §1, with “The SPR analysis was run at 25° C. with a flow rate of 50-80 μl/min with 60 seconds association and a suitable disassociation period (100-900 seconds). Data were corrected for DMSO excluded volume effects. All data were double-referenced for blank injections and reference surface using standard processing procedures and data processing and kinetic fitting were performed using Scrubber software, version 2.0c (BioLogic Software). Data were fitted using mass transport model allowing for mass transport effects where appropriate.” left out

[9] = biological target: T1, Recombinant biotinylated human …; experiment: SPR (Biacore), biotinylated human P-selectin captured on streptavidin chip, peptide as analyte; peptide BCY12259, a separate peptide number
Protocol: as §1, with “The SPR analysis was run at 25° C. with a flow rate of 50-80 μl/min with 60 seconds association and a suitable disassociation period (100-900 seconds). Data were corrected for DMSO excluded volume effects. All data were double-referenced for blank injections and reference surface using standard processing procedures and data processing and kinetic fitting were performed using Scrubber software, version 2.0c (BioLogic Software). Data were fitted using mass transport model allowing for mass transport effects where appropriate.” left out

[10] = biological target: T1, Recombinant biotinylated human …; experiment: SPR (Biacore), biotinylated human P-selectin captured on streptavidin chip, peptide as analyte; peptide BCY5458, a separate peptide number
Protocol: as §1, with “The SPR analysis was run at 25° C. with a flow rate of 50-80 μl/min with 60 seconds association and a suitable disassociation period (100-900 seconds). Data were corrected for DMSO excluded volume effects. All data were double-referenced for blank injections and reference surface using standard processing procedures and data processing and kinetic fitting were performed using Scrubber software, version 2.0c (BioLogic Software). Data were fitted using mass transport model allowing for mass transport effects where appropriate.” left out

[11] = biological target: T1, Recombinant biotinylated human …; experiment: SPR (Biacore), biotinylated human P-selectin captured on streptavidin chip, peptide as analyte; peptide BCY10194 (A-(SEQ ID NO: 6)-A)
Protocol: as §1, with “The SPR analysis was run at 25° C. with a flow rate of 50-80 μl/min with 60 seconds association and a suitable disassociation period (100-900 seconds). Data were corrected for DMSO excluded volume effects. All data were double-referenced for blank injections and reference surface using standard processing procedures and data processing and kinetic fitting were performed using Scrubber software, version 2.0c (BioLogic Software). Data were fitted using mass transport model allowing for mass transport effects where appropriate.” left out

ACDADWCDVPSLPCA-NH2 (linker 2-7-14 via TCAZ″, Monomeric bicyclic peptide) [BCY11648]
Kd [1]: 128 nM | IC50 [2]: > 117 nM | Inhibition at top concentration (%) [2]: 37%

B1: BCY5459 (peptide)
peptide: Pent4ynoyl-ACYMEWCDVTDYGCA-NH2
modifications: linker 2-7-14 via TATA; also: trimer of 3 copies via central hinge B (TCA) and spacer S1A n=23 joined to N-terminal Pya
Kd [3]: 169 nM

B2: BCY12261 (peptide)
peptide: ACDADWCDVPSLPCAK(Pent4ynoyl)-NH2
modifications: linker 2-7-14 via TCAZ″; not fully specified; also: tetramer of 4 copies via central hinge A (Tet) and spacer S1A n=23 joined to K(Pya)
Kd [4]: 0.019 nM

Ac-ACYME[1Nal]CDVTDYGCA-NH2 (linker 2-7-14 via TATA, Monomeric bicyclic peptide) [BCY11279]
Kd [1]: 690 nM | IC50 [2]: > 3540 nM | Inhibition at top concentration (%) [2]: 24%

B3: BCY12257 (peptide)
peptide: ACDADWCDVPSLPCAK(Pent4ynoyl)-NH2
modifications: linker 2-7-14 via TCAZ″; not fully specified; also: tandem dimer of 2 copies via central hinge C (GTA) and spacer S1A n=23 joined to K(Pya)
Kd [5]: 11.6 nM

B4: BCY5463 (peptide)
peptide: Pent4ynoyl-ACYMEWCDVTDYGCA-NH2
modifications: linker 2-7-14 via TATA; also: tetramer of 4 copies via central hinge A (Tet) and spacer S1A n=23 joined to N-terminal Pya
Kd [6]: 53 nM

B5: BCY5454 (peptide)
peptide: Pent4ynoyl-ACYMEWCDVTDYGCA-NH2
modifications: linker 2-7-14 via TATA; also: tandem dimer of 2 copies via central hinge C (GTA) and spacer S1A n=10 joined to N-terminal Pya
Kd [7]: 400 nM

ACDAD[1Nal]CDVPSLPCA-NH2 (linker 2-7-14 via TCAZ, Monomeric bicyclic peptide) [BCY12027]
Kd [1]: 5.36 nM | IC50 [2]: > 36.8 nM | Inhibition at top concentration (%) [2]: 36%

B6: BCY5462 (peptide)
peptide: Pent4ynoyl-ACYMEWCDVTDYGCA-NH2
modifications: linker 2-7-14 via TATA; also: tetramer of 4 copies via central hinge A (Tet) and spacer S1A n=10 joined to N-terminal Pya
Kd [8]: 88 nM

B7: BCY12259 (peptide)
peptide: ACDADWCDVPSLPCAK(Pent4ynoyl)-NH2
modifications: linker 2-7-14 via TCAZ″; not fully specified; also: trimer of 3 copies via central hinge B (TCA) and spacer S1A n=23 joined to K(Pya)
Kd [9]: 0.233 nM

B8: BCY5458 (peptide)
peptide: Pent4ynoyl-ACYMEWCDVTDYGCA-NH2
modifications: linker 2-7-14 via TATA; also: trimer of 3 copies via central hinge B (TCA) and spacer S1A n=10 joined to N-terminal Pya
Kd [10]: 400 nM

B9: SelG1 (Crizanlizumab) (antibody, V domains shown)
VH: QVQLVQSGAEVKKPGASVKVSCKVSGYTFTSYDINWVRQAPGKGLEWMGWIYPGDGSIKYNEKFKGRVTMTVDKSTDTAYMELSSLRSEDTAVYYCARRGEYGNYEGAMDYWGQGTLVTVSS
VL: DIQMTQSPSSLSASVGDRVTITCKASQSVDYDGHSYMNWYQQKPGKAPKLLIYAASNLESGVPSRFSGSGSGTDFTLTISSLQPEDFATYYCQQSDENPLTFGGGTKVEIK
IC50 [2]: 4.75 nM | Inhibition at top concentration (%) [2]: 96%

B10: BCY9717 (peptide)
peptide: Ac-CYMEWCDVTDYGC-NH2
modifications: linker 1-6-13 via TATA
notes: Monomeric bicyclic peptide; also called BCY09717
Kd [1]: 7600 nM | IC50 [2]: > 10900 nM | Inhibition at top concentration (%) [2]: 20%

ACYMEWCDVTDYGCA-NH2 (linker 2-7-14 via TATA, Monomeric bicyclic peptide) [BCY10194]
Kd [11]: 9500 nM
